Source: the supplement of paper PMC10567573

B1: INTS3 (parent)
chain: DLNSKGKKREFRFHPIKETVVEEP

Variants of: B1
Experiment: protein stability index of a GFP-peptide fusion (GPS, HEK-293T) (PSI 1-6); higher = more stable
Details: c terminus: a fixed tail appended
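Note: lentivirally expressed fusions sorted by FACS into six bins by GFP to DsRed ratio, PSI derived from sequencing read proportions per bin multiplied by bin number.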

Row | Variant | protein stability index
1 | DLNSKGKKFEFRFHPIKETVVEEP [R9F] | 1.65
2 | DLNSKGKKGEFRFHPIKETVVEEP [R9G] | 2.41
3 | DLNSKGKKHEFRFHPIKETVVEEP [R9H] | 1.79
4 | DLNSKGKKIEFRFHPIKETVVEEP [R9I] | 2.35
5 | DLNSKGKKKEFRFHPIKETVVEEP [R9K] | 3.07
6 | DLNSKGKKLEFRFHPIKETVVEEP [R9L] | 1.78
7 | DLNSKGKKMEFRFHPIKETVVEEP [R9M] | 1.78
8 | DLNSKGKKNEFRFHPIKETVVEEP [R9N] | 2.49
9 | DLNSKGKKPEFRFHPIKETVVEEP [R9P] | 2.34
10 | DLNSKGKKQEFRFHPIKETVVEEP [R9Q] | 2.83
11 | DLNSKGKKSEFRFHPIKETVVEEP [R9S] | 2.53
12 | DLNSKGKKTEFRFHPIKETVVEEP [R9T] | 2.56
13 | DLNSKGKKVEFRFHPIKETVVEEP [R9V] | 2.37
14 | DLNSKGKKWEFRFHPIKETVVEEP [R9W] | 2.21
15 | DLNSKGKKYEFRFHPIKETVVEEP [R9Y] | 2.31
16 | DLNSKGKKRAFRFHPIKETVVEEP [E10A] | 3.19
17 | DLNSKGKKRCFRFHPIKETVVEEP [E10C] | 2.97
18 | DLNSKGKKRDFRFHPIKETVVEEP [E10D] | 2.7
19 | DLNSKGKKRFFRFHPIKETVVEEP [E10F] | 1.76
20 | DLNSKGKKRGFRFHPIKETVVEEP [E10G] | 2
21 | DLNSKGKKRHFRFHPIKETVVEEP [E10H] | 2.72
22 | DLNSKGKKRIFRFHPIKETVVEEP [E10I] | 1.78
23 | DLNSKGKKRKFRFHPIKETVVEEP [E10K] | 2.88
24 | DLNSKGKKRLFRFHPIKETVVEEP [E10L] | 1.94

Row | Variant | protein stability index
25 | DLNSKGKKRMFRFHPIKETVVEEP [E10M] | 1.64
26 | DLNSKGKKRNFRFHPIKETVVEEP [E10N] | 2.58
27 | DLNSKGKKRPFRFHPIKETVVEEP [E10P] | 2.55
28 | DLNSKGKKRQFRFHPIKETVVEEP [E10Q] | 1.87
29 | DLNSKGKKRRFRFHPIKETVVEEP [E10R] | 1.96
30 | DLNSKGKKRSFRFHPIKETVVEEP [E10S] | 1.65
31 | DLNSKGKKRTFRFHPIKETVVEEP [E10T] | 1.99
32 | DLNSKGKKRVFRFHPIKETVVEEP [E10V] | 1.3
33 | DLNSKGKKRWFRFHPIKETVVEEP [E10W] | 2.1
34 | DLNSKGKKRYFRFHPIKETVVEEP [E10Y] | 1.49
35 | DLNSKGKKREARFHPIKETVVEEP [F11A] | 3.95
36 | DLNSKGKKRECRFHPIKETVVEEP [F11C] | 4.47
37 | DLNSKGKKREDRFHPIKETVVEEP [F11D] | 4.88
38 | DLNSKGKKREERFHPIKETVVEEP [F11E] | 4.94
39 | DLNSKGKKREGRFHPIKETVVEEP [F11G] | 4.32
40 | DLNSKGKKREHRFHPIKETVVEEP [F11H] | 4.31
41 | DLNSKGKKREIRFHPIKETVVEEP [F11I] | 3.55
42 | DLNSKGKKREKRFHPIKETVVEEP [F11K] | 4.46
43 | DLNSKGKKRELRFHPIKETVVEEP [F11L] | 3.84
44 | DLNSKGKKREMRFHPIKETVVEEP [F11M] | 4.45
45 | DLNSKGKKRENRFHPIKETVVEEP [F11N] | 4.13
46 | DLNSKGKKREPRFHPIKETVVEEP [F11P] | 4.39
47 | DLNSKGKKREQRFHPIKETVVEEP [F11Q] | 4.11
48 | DLNSKGKKRERRFHPIKETVVEEP [F11R] | 4.28

Row | Variant | protein stability index
49 | DLNSKGKKRESRFHPIKETVVEEP [F11S] | 4.39
50 | DLNSKGKKRETRFHPIKETVVEEP [F11T] | 4.87
51 | DLNSKGKKREVRFHPIKETVVEEP [F11V] | 4.02
52 | DLNSKGKKREWRFHPIKETVVEEP [F11W] | 2.1
53 | DLNSKGKKREYRFHPIKETVVEEP [F11Y] | 3.89
54 | DLNSKGKKREFAFHPIKETVVEEP [R12A] | 4.15
55 | DLNSKGKKREFCFHPIKETVVEEP [R12C] | 3.99
56 | DLNSKGKKREFDFHPIKETVVEEP [R12D] | 4.25
57 | DLNSKGKKREFEFHPIKETVVEEP [R12E] | 4.03
58 | DLNSKGKKREFFFHPIKETVVEEP [R12F] | 3.13
59 | DLNSKGKKREFGFHPIKETVVEEP [R12G] | 4.24
60 | DLNSKGKKREFHFHPIKETVVEEP [R12H] | 4.2
61 | DLNSKGKKREFIFHPIKETVVEEP [R12I] | 3.79
62 | DLNSKGKKREFKFHPIKETVVEEP [R12K] | 4.11
63 | DLNSKGKKREFLFHPIKETVVEEP [R12L] | 3.57
64 | DLNSKGKKREFMFHPIKETVVEEP [R12M] | 4.12
65 | DLNSKGKKREFNFHPIKETVVEEP [R12N] | 3.74
66 | DLNSKGKKREFPFHPIKETVVEEP [R12P] | 4.07
67 | DLNSKGKKREFQFHPIKETVVEEP [R12Q] | 4
68 | DLNSKGKKREFSFHPIKETVVEEP [R12S] | 4.04
69 | DLNSKGKKREFTFHPIKETVVEEP [R12T] | 4.28
70 | DLNSKGKKREFVFHPIKETVVEEP [R12V] | 3.55
71 | DLNSKGKKREFWFHPIKETVVEEP [R12W] | 3.02
72 | DLNSKGKKREFYFHPIKETVVEEP [R12Y] | 4.12

Row | Variant | protein stability index
73 | DLNSKGKKREFRAHPIKETVVEEP [F13A] | 4.44
74 | DLNSKGKKREFRCHPIKETVVEEP [F13C] | 3.94
75 | DLNSKGKKREFRDHPIKETVVEEP [F13D] | 4.71
76 | DLNSKGKKREFREHPIKETVVEEP [F13E] | 4.75
77 | DLNSKGKKREFRGHPIKETVVEEP [F13G] | 4.31
78 | DLNSKGKKREFRHHPIKETVVEEP [F13H] | 3.75
79 | DLNSKGKKREFRIHPIKETVVEEP [F13I] | 3.78
80 | DLNSKGKKREFRKHPIKETVVEEP [F13K] | 4.06
81 | DLNSKGKKREFRLHPIKETVVEEP [F13L] | 4.78
82 | DLNSKGKKREFRMHPIKETVVEEP [F13M] | 4.25
83 | DLNSKGKKREFRNHPIKETVVEEP [F13N] | 4.65
84 | DLNSKGKKREFRPHPIKETVVEEP [F13P] | 4.48
85 | DLNSKGKKREFRQHPIKETVVEEP [F13Q] | 4.5
86 | DLNSKGKKREFRRHPIKETVVEEP [F13R] | 3.99
87 | DLNSKGKKREFRSHPIKETVVEEP [F13S] | 4.27
88 | DLNSKGKKREFRTHPIKETVVEEP [F13T] | 4.02
89 | DLNSKGKKREFRVHPIKETVVEEP [F13V] | 4.47
90 | DLNSKGKKREFRWHPIKETVVEEP [F13W] | 3.72
91 | DLNSKGKKREFRYHPIKETVVEEP [F13Y] | 2.47
92 | DLNSKGKKREFRFAPIKETVVEEP [H14A] | 3.83
93 | DLNSKGKKREFRFCPIKETVVEEP [H14C] | 3.36
94 | DLNSKGKKREFRFDPIKETVVEEP [H14D] | 4.59
